Experimental data taken from patent US20210388087A1 (Chugai, published 2021).
Changes are numbered by the printed parent chain. Names may count otherwise.

T1: Human CD3eg linker (human)
T1 construct: Single-chain construct; also called recombinant human CD3
T1 chain: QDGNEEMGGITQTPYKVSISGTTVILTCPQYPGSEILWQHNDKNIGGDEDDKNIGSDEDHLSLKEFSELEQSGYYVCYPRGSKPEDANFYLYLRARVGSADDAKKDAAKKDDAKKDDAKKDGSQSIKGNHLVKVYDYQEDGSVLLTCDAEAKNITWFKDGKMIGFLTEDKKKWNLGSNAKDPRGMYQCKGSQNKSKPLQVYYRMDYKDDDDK

B1: H183/L072 VL L33D (antibody, name in Kabat numbering, V domains shown)
VH: QVQLVESGGGLVQPGRSLRLSCAASGFTFSNAWMHWVRQAPGKGLEWVAQIKDKGNAYAAYYAPSVKGRFTISRDDSKNSIYLQMNSLKTEDTAVYYCHYVHYASASTVLPAFGVDAWGQGTTVTVSS
VL: DIVMTQSPLSLPVTPGEPASISCQASQELVHMNRNTYDHWYQQKPGQAPRLLIYKVSNRFPGVPDRFSGSGSGTDFTLKISRVEAEDVGVYYCAQGTSVPFTFGQGTKLEIK
B2: H183/L072 VL N30D (antibody, name in Kabat numbering, V domains shown)
VH: B1 VH
VL: B1 VL with N35D, D38L
B3: H183/L072 VL L33E (antibody, name in Kabat numbering, V domains shown)
VH: B1 VH
VL: B1 VL with D38E
B4: H183/L072 VL L33F (antibody, name in Kabat numbering, V domains shown)
VH: B1 VH
VL: B1 VL with D38F
B5: H183/L072 VL M27eS (antibody, name in Kabat numbering, V domains shown)
VH: B1 VH
VL: B1 VL with M32S, D38L
B6: H183/L072 VL L33G (antibody, name in Kabat numbering, V domains shown)
VH: B1 VH
VL: B1 VL with D38G
B7: H183/L072 VL L33V (antibody, name in Kabat numbering, V domains shown)
VH: B1 VH
VL: B1 VL with D38V
B8: H183/L072 VL M27eD (antibody, name in Kabat numbering, V domains shown)
VH: B1 VH
VL: B1 VL with M32D, D38L
B9: H183/L072 VL M27eL (antibody, name in Kabat numbering, V domains shown)
VH: B1 VH
VL: B1 VL with M32L, D38L
B10: H183/L072 VL N28H (antibody, name in Kabat numbering, V domains shown)
VH: B1 VH
VL: B1 VL with N33H, D38L
B11: H183/L072 VL M27eN (antibody, name in Kabat numbering, V domains shown)
VH: B1 VH
VL: B1 VL with M32N, D38L
B12: H183/L072 VL N28Q (antibody, name in Kabat numbering, V domains shown)
VH: B1 VH
VL: B1 VL with N33Q, D38L
B13: H183/L072 VL N30H (antibody, name in Kabat numbering, V domains shown)
VH: B1 VH
VL: B1 VL with N35H, D38L
B14: H183/L072 VL M27eG (antibody, name in Kabat numbering, V domains shown)
VH: B1 VH
VL: B1 VL with M32G, D38L
B15: H183/L072 VL M27eH (antibody, name in Kabat numbering, V domains shown)
VH: B1 VH
VL: B1 VL with M32H, D38L
B16: H183/L072 VL M27eP (antibody, name in Kabat numbering, V domains shown)
VH: B1 VH
VL: B1 VL with M32P, D38L
B17: H183/L072 VL N28G (antibody, name in Kabat numbering, V domains shown)
VH: B1 VH
VL: B1 VL with N33G, D38L
B18: H183/L072 VL M27eK (antibody, name in Kabat numbering, V domains shown)
VH: B1 VH
VL: B1 VL with M32K, D38L
B19: H183/L072 VL M27eA (antibody, name in Kabat numbering, V domains shown)
VH: B1 VH
VL: B1 VL with M32A, D38L
B20: H183/L072 VL M27eE (antibody, name in Kabat numbering, V domains shown)
VH: B1 VH
VL: B1 VL with M32E, D38L
B21: H183/L072 VL M27eF (antibody, name in Kabat numbering, V domains shown)
VH: B1 VH
VL: B1 VL with M32F, D38L
B22: H183/L072 VL M27eI (antibody, name in Kabat numbering, V domains shown)
VH: B1 VH
VL: B1 VL with M32I, D38L
B23: H183/L072 VL N28T (antibody, name in Kabat numbering, V domains shown)
VH: B1 VH
VL: B1 VL with N33T, D38L
B24: H183/L072 VL N28K (antibody, name in Kabat numbering, V domains shown)
VH: B1 VH
VL: B1 VL with N33K, D38L
B25: H183/L072 VL M27eQ (antibody, name in Kabat numbering, V domains shown)
VH: B1 VH
VL: B1 VL with M32Q, D38L
B26: H183/L072 VL M27eY (antibody, name in Kabat numbering, V domains shown)
VH: B1 VH
VL: B1 VL with M32Y, D38L
B27: H183/L072 VL L33T (antibody, name in Kabat numbering, V domains shown)
VH: B1 VH
VL: B1 VL with D38T
B28: H183/L072 VL M27eV (antibody, name in Kabat numbering, V domains shown)
VH: B1 VH
VL: B1 VL with M32V, D38L
B29: H183/L072 VL L33M (antibody, name in Kabat numbering, V domains shown)
VH: B1 VH
VL: B1 VL with D38M
B30: H183/L072 VL L33N (antibody, name in Kabat numbering, V domains shown)
VH: B1 VH
VL: B1 VL with D38N
B31: H183/L072 VL N30G (antibody, name in Kabat numbering, V domains shown)
VH: B1 VH
VL: B1 VL with N35G, D38L
B32: H183/L072 VL L33K (antibody, name in Kabat numbering, V domains shown)
VH: B1 VH
VL: B1 VL with D38K
B33: H183/L072 VL N30E (antibody, name in Kabat numbering, V domains shown)
VH: B1 VH
VL: B1 VL with N35E, D38L
B34: H183/L072 VL L33H (antibody, name in Kabat numbering, V domains shown)
VH: B1 VH
VL: B1 VL with D38H
B35: H183/L072 VL N30A (antibody, name in Kabat numbering, V domains shown)
VH: B1 VH
VL: B1 VL with N35A, D38L
B36: H183/L072 VL M27eR (antibody, name in Kabat numbering, V domains shown)
VH: B1 VH
VL: B1 VL with M32R, D38L
B37: H183/L072 VL M27eW (antibody, name in Kabat numbering, V domains shown)
VH: B1 VH
VL: B1 VL with M32W, D38L
B38: H183/L072 VL N28A (antibody, name in Kabat numbering, V domains shown)
VH: B1 VH
VL: B1 VL with N33A, D38L
B39: H183/L072 VL L33S (antibody, name in Kabat numbering, V domains shown)
VH: B1 VH
VL: B1 VL with D38S
B40: H183/L072 VL N30F (antibody, name in Kabat numbering, V domains shown)
VH: B1 VH
VL: B1 VL with N35F, D38L
B41: H183/L072 VL M27eT (antibody, name in Kabat numbering, V domains shown)
VH: B1 VH
VL: B1 VL with M32T, D38L
B42: H183/L072 VL N28E (antibody, name in Kabat numbering, V domains shown)
VH: B1 VH
VL: B1 VL with N33E, D38L
B43: H183/L072 VL N28S (antibody, name in Kabat numbering, V domains shown)
VH: B1 VH
VL: B1 VL with N33S, D38L
B44: H183/L072 VL L33Q (antibody, name in Kabat numbering, V domains shown)
VH: B1 VH
VL: B1 VL with D38Q
B45: H183/L072 VL N28D (antibody, name in Kabat numbering, V domains shown)
VH: B1 VH
VL: B1 VL with N33D, D38L

Biological target: T1, Human CD3eg linker
Experiment: SPR; fold vs parent H183/L072

| Binder | fold change of affinity |
| --- | --- |
| B1 | 0 fold |
| B2 | 0.1 fold |
| B3 | 0 fold |
| B4 | 1.1 fold |
| B5 | 1.2 fold |
| B6 | 0 fold |
| B7 | 0.4 fold |
| B8 | 0.8 fold |
| B9 | 1 fold |
| B10 | 0 fold |
| B11 | 0.9 fold |
| B12 | 0 fold |
| B13 | 0.8 fold |
| B14 | 0.9 fold |
| B15 | 0.9 fold |
| B16 | 1.2 fold |
| B17 | 0 fold |
| B18 | 1.4 fold |
| B19 | 1.3 fold |
| B20 | 1 fold |
| B21 | 0.9 fold |
| B22 | 0.9 fold |
| B23 | 0 fold |

| Binder | fold change of affinity |
| --- | --- |
| B24 | 0 fold |
| B25 | 1.1 fold |
| B26 | 0.9 fold |
| B27 | 0.3 fold |
| B28 | 0.8 fold |
| B29 | 1.1 fold |
| B30 | 0 fold |
| B31 | 0 fold |
| B32 | 0 fold |
| B33 | 0.3 fold |
| B34 | 1.4 fold |
| B35 | 0.3 fold |
| B36 | 1.4 fold |
| B37 | 1 fold |
| B38 | 0 fold |
| B39 | 0 fold |
| B40 | 0.9 fold |
| B41 | 1.2 fold |
| B42 | 0 fold |
| B43 | 0 fold |
| B44 | 1.7 fold |
| B45 | 0 fold |
